T1: feline IL-5 (Kingfisher Biotech; RP1152F) (feline, UniProt O77515 20-134)
T1 construct: Bought recombinant protein; also called fIL-5; fIL5
T1 sequence (looked up): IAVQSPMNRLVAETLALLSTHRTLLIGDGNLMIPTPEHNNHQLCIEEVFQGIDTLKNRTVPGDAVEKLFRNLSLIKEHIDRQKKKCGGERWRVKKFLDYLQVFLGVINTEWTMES


Biological target: T1, feline IL-5 (Kingfisher Biotech; …)
Assay: ELISA, Fab culture supernatant on plate-coated feline IL-5, anti-feline Fab'2-HRP detection
Description: Fragments containing the pre-selected CDR pools from these libraries were randomly paired by overlap PCR to create a new library incorporating mutations throughout all targeted CDRs. The phage propagated following round 4 of selection were used for PCR amplication of LCDR2, LCDR3 and HCDR3. The PCR-amplified fragment containing the light chain and the heavy chain were ligated into a phagemid vector and transformed into E. coli. The number of transformants was approximately 2E+10. Library plasmid DNA was purified using a midi-prep purification method. Ten pg of the library plasmid DNA was transformed into E. coli for growth and propagation of the Fab phage. After overnight phage production, phage was precipitated from the culture supernatant and resuspended in blocking buffer (1% BSA/PBS). The phage were treated at 58° C. for 10 minutes to remove unstable clones prior to the selections. The input phage was incubated for 30 minutes in a blocked ELISA plate coated with feline IL-5. The ELISA plate was washed with PBS, pH 7.4 followed by acid elution of the bound phage. The output phage was then used to infect E. coli for propagation for the next round of selection. For rounds 1, 2, 3 and 4, the ELISA plates were coated with 10 μg/ml, 8 μg/ml, 5 μg/ml and 1 μg/ml, respectively. The number of washes after each round were 3, 5, 10 and 10 for rounds 1, 2, 3 and 4, respectively. Ninety-three clones from the round 4 output were grown overnight for Fab production and tested for binding to feline IL-5 in an ELISA format. For this assay, supernatants from the overnight cultures were incubated in Immulon 4 HBX high-binding plate that was coated with 10 μg/ml feline IL-5 (Kingfisher Biotech; Cat #RP1152F) and blocked with 1% bovine serum albumin in phosphate buffered saline (PBS), pH 7.4. The controls added included the MtxB clone and clone 1H3-C6 which was the top affinity clone from the first stage A1 step. The Fab binding to the feline IL-5 was detected with anti-feline Fab′₂-HRP conjugate.
The results are shown in Table 8A which compares relative Fab binding affinity to feline IL-5 by Fabs disclosed herein. IL-5 binding was detected with anti-feline Fab′₂-HRP conjugate. Differences in CDR amino acids compared to the MtxB are underlined. The data in the last column are absorbance following addition of substrate to detect the HRP conjugate.

fIL5 Fab (ELISA absorbance) [absorbance] | Binder
1.28 | LxH3-D3 Fab (affinity matured MtxB) (Fab, V domains shown, Fab from the Stage B library on MtxB; the entries named are the parent, the changed regions are told under detail) VH: DVQLVESGGDLVKPGGSLRLTCVGSGFTFSNYAMSWVRQAPGEGLQWVATIGSGGHYTYHPDSVKGRFTISRDNAKNTLYLQMNSLQTEDTASYYCTRETDGYGPILDWGQGTLVTVSS VL: DIVMTQTPLSLSVTPGEPASISCRASQSISDYLYWYLQKPGQSPRLLFNVLSQRSSGVPDRFSGSGSGTDFTLRISRVEADDVGVYYCQQGLVFPYTFGPGTKLEIK
1.13 | LxH3-D9 Fab (affinity matured MtxB) (Fab, V domains shown, Fab from the Stage B library on MtxB; the entries named are the parent, the changed regions are told under detail) VH: DVQLVESGGDLVKPGGSLRLTCVGSGFTFSNYAMSWVRQAPGEGLQWVATIGSGGHYTYHPDSVKGRFTISRDNAKNTLYLQMNSLQTEDTASYYCTRETDGYGPILDWGQGTLVTVSS VL: DIVMTQTPLSLSVTPGEPASISCRASQSISDYLYWYLQKPGQSPRLIINYGSVLLSGVPDRFSGSGSGTDFTLRISRVEADDVGVYYCQQGLLFPYTFGPGTKLEIKR
0.653 | LxH3-G2 Fab (affinity matured MtxB) (Fab, V domains shown, Fab from the Stage B library on MtxB; the entries named are the parent, the changed regions are told under detail) VH: DVQLVESGGDLVKPGGSLRLTCVGSGFTFSNYAMSWVRQAPGEGLQWVATIGSGGHYTYHPDSVKGRFTISRDNAKNTLYLQMNSLQTEDTASYYCTRETDGYGPLDLWGQGTLVTVSS VL: DIVMTQTPLSLSVTPGEPASISCRASQSISDYLYWYLQKPGQSPRLVINWGSQRASGVPDRFSGSGSGTDFTLRISRVEADDVGVYYCQQGAIFPYTFGPGTKLEIKR
0.972 | LxH3-B6 Fab (affinity matured MtxB) (Fab, V domains shown, Fab from the Stage B library on MtxB; the entries named are the parent, the changed regions are told under detail) VH: DVQLVESGGDLVKPGGSLRLTCVGSGFTFSNYAMSWVRQAPGEGLQWVATIGSGGHYTYHPDSVKGRFTISRDNAKNTLYLQMNSLQTEDTASYYCTRETDGYGPILDWGQGTLVTVSS VL: DIVMTQTPLSLSVTPGEPASISCRASQSISDYLYWYLQKPGQSPRLIFNPLSVRRSGVPDRFSGSGSGTDFTLRISRVEADDVGVYYCQQGMVFPYTFGPGTKLEIKR
0.809 | LxH3-E2 Fab (affinity matured MtxB) (Fab, V domains shown, Fab from the Stage B library on MtxB; the entries named are the parent, the changed regions are told under detail) VH: DVQLVESGGDLVKPGGSLRLTCVGSGFTFSNYAMSWVRQAPGEGLQWVATIGSGGHYTYHPDSVKGRFTISRDNAKNTLYLQMNSLQTEDTASYYCTRETDGYGPILDWGQGTLVTVSS VL: DIVMTQTPLSLSVTPGEPASISCRASQSISDYLYWYLQKPGQSPRRIFNHLSPSSSGVPDRFSGSGSGTDFTLRISRVEADDVGVYYCQQGSVFPYTFGPGTKLEIKR
0.722 | LxH3-A9 Fab (affinity matured MtxB) (Fab, V domains shown, Fab from the Stage B library on MtxB; the entries named are the parent, the changed regions are told under detail) VH: DVQLVESGGDLVKPGGSLRLTCVGSGFTFSNYAMSWVRQAPGEGLQWVATIGSGGHYTYHPDSVKGRFTISRDNAKNTLYLQMNSLQTEDTASYYCTRETDGYGPLDLWGQGTLVTVSS VL: DIVMTQTPLSLSVTPGEPASISCRASQSISDYLYWYLQKPGQSPRRIIFTGSQRNSGVPDRFSGSGSGTDFTLRISRVEADDVGVYYCQQGMVFPYTFGPGTKLEIKR
1.16 | LxH3-F3 Fab (affinity matured MtxB) (Fab, V domains shown, Fab from the Stage B library on MtxB; the entries named are the parent, the changed regions are told under detail) VH: DVQLVESGGDLVKPGGSLRLTCVGSGFTFSNYAMSWVRQAPGEGLQWVATIGSGGHYTYHPDSVKGRFTISRDNAKNTLYLQMNSLQTEDTASYYCTRETDGYGPLDLWGQGTLVTVSS VL: DIVMTQTPLSLSVTPGEPASISCRASQSISDYLYWYLQKPGQSPRLLFNSVSPTRSGVPDRFSGSGSGTDFTLRISRVEADDVGVYYCQQGVVFPYTFGPGTKLEIK
0.748 | LxH3-E8 Fab (affinity matured MtxB) (Fab, V domains shown, Fab from the Stage B library on MtxB; the entries named are the parent, the changed regions are told under detail) VH: DVQLVESGGDLVKPGGSLRLTCVGSGFTFSNYAMSWVRQAPGEGLQWVATIGSGGHYTYHPDSVKGRFTISRDNAKNTLYLQMNSLQTEDTASYYCTRETDGYGPILDWGQGTLVTVSS VL: DIVMTQTPLSLSVTPGEPASISCRASQSISDYLYWYLQKPGQSPRLIINQASSKLSGVPDRFSGSGSGTDFTLRISRVEADDVGVYYCQQGPLFPYTFGPGTKLEIKR
0.702 | LxH3-B10 Fab (affinity matured MtxB) (Fab, V domains shown, Fab from the Stage B library on MtxB; the entries named are the parent, the changed regions are told under detail) VH: DVQLVESGGDLVKPGGSLRLTCVGSGFTFSNYAMSWVRQAPGEGLQWVATIGSGGHYTYHPDSVKGRFTISRDNAKNTLYLQMNSLQTEDTASYYCTRETDGYGPILDWGQGTLVTVSS VL: DIVMTQTPLSLSVTPGEPASISCRASQSISDYLYWYLQKPGQSPRRLIFTGSQRASGVPDRFSGSGSGTDFTLRISRVEADDVGVYYCQQGVRFPYTFGPGTKLEIKR
0.513 | LxH3-F12 Fab (affinity matured MtxB) (Fab, V domains shown, Fab from the Stage B library on MtxB; the entries named are the parent, the changed regions are told under detail) VH: DVQLVESGGDLVKPGGSLRLTCVGSGFTFSNYAMSWVRQAPGEGLQWVATIGSGGHYTYHPDSVKGRFTISRDNAKNTLYLQMNSLQTEDTASYYCTRETDGYGPLDLWGQGTLVTVSS VL: DIVMTQTPLSLSVTPGEPASISCRASQSISDYLYWYLQKPGQSPRLIFNPLSVRRSGVPDRFSGSGSGTDFTLRISRVEADDVGVYYCQQGYVFPYTFGPGTKLEIKR
0.738 | LxH3-F4 Fab (affinity matured MtxB) (Fab, V domains shown, Fab from the Stage B library on MtxB; the entries named are the parent, the changed regions are told under detail) VH: DVQLVESGGDLVKPGGSLRLTCVGSGFTFSNYAMSWVRQAPGEGLQWVATIGSGGHYTYHPDSVKGRFTISRDNAKNTLYLQMNSLQTEDTASYYCTRETDGYGPMLDWGQGTLVTVSS VL: DIVMTQTPLSLSVTPGEPASISCRASQSISDYLYWYLQKPGQSPRLLFNYGSVLASGVPDRFSGSGSGTDFTLRISRVEADDVGVYYCQQGYLFPYTFGPGTKLEIKR
0.708 | LxH3-D6 Fab (affinity matured MtxB) (Fab, V domains shown, Fab from the Stage B library on MtxB; the entries named are the parent, the changed regions are told under detail) VH: DVQLVESGGDLVKPGGSLRLTCVGSGFTFSNYAMSWVRQAPGEGLQWVATIGSGGHYTYHPDSVKGRFTISRDNAKNTLYLQMNSLQTEDTASYYCTRETDGYGPILDWGQGTLVTVSS VL: DIVMTQTPLSLSVTPGEPASISCRASQSISDYLYWYLQKPGQSPRRVIYTGSQRSSGVPDRFSGSGSGTDFTLRISRVEADDVGVYYCQQGLVFPYTFGPGTKLEIKR
1.01 | LxH3-D1 Fab (affinity matured MtxB) (Fab, V domains shown, Fab from the Stage B library on MtxB; the entries named are the parent, the changed regions are told under detail) VH: DVQLVESGGDLVKPGGSLRLTCVGSGFTFSNYAMSWVRQAPGEGLQWVATIGSGGHYTYHPDSVKGRFTISRDNAKNTLYLQMNSLQTEDTASYYCTRETDGYGPILDWGQGTLVTVSS VL: DIVMTQTPLSLSVTPGEPASISCRASQSISDYLYWYLQKPGQSPRRLIYFGSVRSSGVPDRFSGSGSGTDFTLRISRVEADDVGVYYCQQGLQFPYTFGPGTKLEIKR
0.672 | LxH3-G7 Fab (affinity matured MtxB) (Fab, V domains shown, Fab from the Stage B library on MtxB; the entries named are the parent, the changed regions are told under detail) VH: DVQLVESGGDLVKPGGSLRLTCVGSGFTFSNYAMSWVRQAPGEGLQWVATIGSGGHYTYHPDSVKGRFTISRDNAKNTLYLQMNSLQTEDTASYYCTRETDGYGPILDWGQGTLVTVSS VL: DIVMTQTPLSLSVTPGEPASISCRASQSISDYLYWYLQKPGQSPRLVFNHASPVPSGVPDRFSGSGSGTDFTLRISRVEADDVGVYYCQQGIRFPYTFGPGTKLEIKR
0.877 | LxH3-G10 Fab (affinity matured MtxB) (Fab, V domains shown, Fab from the Stage B library on MtxB; the entries named are the parent, the changed regions are told under detail) VH: DVQLVESGGDLVKPGGSLRLTCVGSGFTFSNYAMSWVRQAPGEGLQWVATIGSGGHYTYHPDSVKGRFTISRDNAKNTLYLQMNSLQTEDTASYYCTRETDGYGPILDWGQGTLVTVSS VL: DIVMTQTPLSLSVTPGEPASISCRASQSISDYLYWYLQKPGQSPRRIIFTGSQRNSGVPDRFSGSGSGTDFTLRISRVEADDVGVYYCQQGAFFPYTFGPGTKLEIKR
1.04 | LxH3-F5 Fab (affinity matured MtxB) (Fab, V domains shown, Fab from the Stage B library on MtxB; the entries named are the parent, the changed regions are told under detail) VH: DVQLVESGGDLVKPGGSLRLTCVGSGFTFSNYAMSWVRQAPGEGLQWVATIGSGGHYTYHPDSVKGRFTISRDNAKNTLYLQMNSLQTEDTASYYCTRETDGYGPLDLWGQGTLVTVSS VL: DIVMTQTPLSLSVTPGEPASISCRASQSISDYLYWYLQKPGQSPRLIINPMSGQLSGVPDRFSGSGSGTDFTLRISRVEADDVGVYYCQQGLLFPYTFGPGTKLEIKR
0.782 | LxH3-F11 Fab (affinity matured MtxB) (Fab, V domains shown, Fab from the Stage B library on MtxB; the entries named are the parent, the changed regions are told under detail) VH: DVQLVESGGDLVKPGGSLRLTCVGSGFTFSNYAMSWVRQAPGEGLQWVATIGSGGHYTYHPDSVKGRFTISRDNAKNTLYLQMNSLQTEDTASYYCTRETDGYGPILDWGQGTLVTVSS VL: DIVMTQTPLSLSVTPGEPASISCRASQSISDYLYWYLQKPGQSPRRVFFHSSYRQSGVPDRFSGSGSGTDFTLRISRVEADDVGVYYCQQGMLFPFTFGPGTKLEIKR
0.545 | LxH3-G4 Fab (affinity matured MtxB) (Fab, V domains shown, Fab from the Stage B library on MtxB; the entries named are the parent, the changed regions are told under detail) VH: DVQLVESGGDLVKPGGSLRLTCVGSGFTFSNYAMSWVRQAPGEGLQWVATIGSGGHYTYHPDSVKGRFTISRDNAKNTLYLQMNSLQTEDTASYYCTRETDGYGPMDLWGQGTLVTVSS VL: DIVMTQTPLSLSVTPGEPASISCRASQSISDYLYWYLQKPGQSPRRLIYFGSLLSSGVPDRFSGSGSGTDFTLRISRVEADDVGVYYCQQGLLFPYTFGPGTKLEIKR
